This is an account of results in patent US20170320960A1.

A word on the Kd: it is a measure of binding affinity in units of concentration.

This experiment addresses hMFI2-ECD-His (extracellular domain of human MFI2, residues G20-C709, with Histidine tag) (human) (UniProt P08582). The experiment in a line: SPR (BIAcore 2000): antibody captured, monomeric MFI2-His flowed, 1:1 Langmuir fit; species not given, taken as hMFI2-His. Background: SPR reads the build-up and loss of mass on a sensor chip optically.

Sequence of hMFI2-ECD-His (extracellular domain of human MFI2, residues G20-C709, with Histidine tag) (human) (P08582 20-709 limits assumed, form in doubt): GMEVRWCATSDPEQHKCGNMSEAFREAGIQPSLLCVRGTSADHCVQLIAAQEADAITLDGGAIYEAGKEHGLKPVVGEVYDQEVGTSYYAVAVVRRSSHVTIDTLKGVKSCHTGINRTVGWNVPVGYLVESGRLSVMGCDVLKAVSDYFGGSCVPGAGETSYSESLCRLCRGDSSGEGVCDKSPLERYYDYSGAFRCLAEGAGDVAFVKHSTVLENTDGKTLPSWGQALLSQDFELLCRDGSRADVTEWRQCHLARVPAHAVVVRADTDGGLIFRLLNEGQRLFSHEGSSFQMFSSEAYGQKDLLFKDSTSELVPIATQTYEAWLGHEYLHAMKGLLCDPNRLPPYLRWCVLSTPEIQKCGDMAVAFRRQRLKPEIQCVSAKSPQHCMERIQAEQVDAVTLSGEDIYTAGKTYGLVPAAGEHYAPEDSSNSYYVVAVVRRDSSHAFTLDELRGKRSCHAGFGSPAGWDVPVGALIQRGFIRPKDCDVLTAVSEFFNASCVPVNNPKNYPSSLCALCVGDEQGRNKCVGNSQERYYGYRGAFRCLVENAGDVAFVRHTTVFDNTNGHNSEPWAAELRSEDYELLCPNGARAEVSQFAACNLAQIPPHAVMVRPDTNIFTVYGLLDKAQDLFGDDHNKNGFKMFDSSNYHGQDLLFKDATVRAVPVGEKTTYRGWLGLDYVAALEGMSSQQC

B1: hSC57.5 (antibody, human IgG1, kappa, V domains shown)
VH: EVQLVQSGAEVKKPGESLKISCKGSGYSFTDYYLHWVRQMPGKGLEWMGRINPYNGATSYNQIFKDQVTISADKSISTAYLQWSSLKASDTAMYYCARGGDYDFPWYWGQGTTVTVSS
VL: DIQMTQSPSSLSASVGDRVTITCKASQDVYAAVAWYQQKPGKAPKLLIYWASTRHAGVPSRFSGSGSGTDFTLTISSLQPEDFATYYCQQHYRTPWTFGQGTKVEIKR
In the case of B1, the Kd was 4.4 nM.

B2: SC57.11 (antibody, V domains shown)
VH: QVQLQQSGAELMKPGASVKISCKATGYTFSNYRIEWMKQRPGHGLEWIGEILPRTGNTNYNENFKGKATFTADTSSNTAYIQLSSLTSEDSAVYYCARDDGYYGRFAYWGQGTLVTVSA
VL: DIQMTQTTSSLSASLGDRVTISCRASQDISSYLNWYQQKPDGTVKLLIYYTSRLHSGVPSRFSGSGSGTDYSLTINNLEQEDIATYFCQQGNTLPPTFGGGTKLEIK
B2: the Kd was determined as 3.2 nM.

B3: SC57.5 (antibody, V domains shown)
VH: EVQLQQSGPELVKPGASVKISCKASGYSFTDYYLHWVKQSHVKSLEWIGRINPYNGATSYNQIFKDKASLTVDKSSSTAYMDLHSLTSEDSAVYYCARGGDYDFPWYWGQGTTLTVSP
VL: DIVMTQSHKFMSTSVGDRVSITCKASQDVYAAVAWYHQKPGQSPKLLIYWASTRHAGVPDRFTGSGSGTDYTLTISSVQAEDLALYYCQQHYRTPWTFGGGTKLEIK
With B3, the Kd came out at 1.1 nM.

B4: SC57.46 (antibody, V domains shown)
VH: QVQLKESGPGLVAPSQSLSITCTVSGFSLTSYGVHWVRQPPGKGLEWLGIIWAGGTTNYNSALMSRLSIRKDNSKSQVFLKMNSLQTDDTAMYYCARDRGYDGYFDYAVDYWGQGTSVTVSS
VL: DIQMTQSPPSLSASVGETVTITCRTSENIYSYLTWYQQKQGKSPQLLVYNAKTLAEGVPSRFSGSGSGTQFSLKINSLQPEDFGSYYCQHHYGTPLTFGAGTKLELK
In turn, B4 had a Kd of 4.5 nM.
